For this experiment, the target named is Aβ1-40 fibril (Homo sapiens). Briefly: other, fibril binding 3-point assay.

Square brackets hold non-standard residues; d marks the D form. * marks the point of attachment. NHOH = ON*

Molecule Me-[dL][dV][dF][dF][dL]-{NHOH} [PPI-1800] had a Kd of around 4 nM.

The values are drawn from patent US20050137128 (published 2005).
